Consider 18 sequences from a protein production outcome set (Wang et al. 2014).

This data set is described as follows: label from the status in PepcDB records.
“MRFRQLLPLFGALFALYIIWGSTYFVIRIGVESWPPLMMAGVRFLSAGMLLMAFLLLRGEKLPPLRQTINAALIGLLLLAVGNGLVTVAEHQNVPSGIAAVVVATVPLFTLCFSYFFGIKTRKLEWVGIAIGLAGIILLNSGGNLSGNPWGAILILIGSMSWAFGSVYGSRIALPVGMMAGAIEMLAAGVVLLCAAFLSGEKLATLPGLSGLMAVGYLALFGSIIAINAYMYLIRNVSPALATSYAYVNPVVAVLLGTGLGGERLSPVEWAALGVIVFAVVLVTLGKYLFPARAVVTPCKTEDSRQ”: the protein production entry was “failed”. To “MRFVATGDWQLGMTAHYLSTEARPRFHRARLDAVKRIGEIAAEQSCDFVVVCGDVFESNQLDRAIISRTFEVLAAFTVPVVLLPGNHDPLDAASIYDSHAFTSRQPGHVHVLRDSEPFEVRPGVEIIGAPWFSKRPQGDLVAQATQNLAEAAPGKVRIIAGHGAVSTLDPDRESLATIDVDSLKTVLREDRAQFVALGDRHATYAVDERIWYSGAPEVTSRREDDPGNVLLVDIDAQSHASSVEKMHIGRWSYLVVEEDVNSDEDVSHLEQRLADIPDKDSTAVWLILRGTLSTAAKSRLDDILDHATDLFALVSLWERHTDIAVVAADEDFAGLGLSGYLQESLDELAETAAGEDLSASAAQDALGLLYRFARSGS” belongs “failed”. The entry for “MRGEFYQQLTNDLETARAEGLFKEERIITSAQQADITVADGSHVINFCANNYLGLANHPDLIAAAKAGMDSHGFGMASVRFICGTQDSHKELEQKLAAFLGMEDAILYSSCFDANGGLFETLLGAEDAIISDALNHASIIDGVRLCKAKRYRYANNDMQELEARLKEAREAGARHVLIATDGVFSMDGVIANLKGVCDLADKYDALVMVDDSHAVGFVGENGRGSHEYCDVMGRVDIITGTLGKALGGASGGYTAARKEVVEWLRQRSRPYLFSNSLAPAIVAASIKVLEMVEAGSELRDRLWANARQFREQMSAAGFTLAGADHAIIPVMLGDAVVAQKFARELQKEGIYVTGFFYPVVPKGQARIRTQMSAAHTPEQITRAVEAFTRIGKQLGVIA” is “not failed”; for “MRGFFSNPWIRWALSLAFLGVILFFLRDQLDFLKMGIQQIRHVSPVGVALTMVALVLSFVAMARVMQIMLKAGGSPATLKATTALTFAANSWSATLPGGPAFSAILTYKVQRSWGASAVLCSWFFLLSSALSTVWLVALGVIAVFYMGASLNLWSLIATFIAMVGLSGAVYWAANNPDSLARWVRKLTKNREWGFVEKLLGSIEQLRSVSLTGPQFAASTAWSLGNRLFDAISLWICIWAVTGTAPMFEPEPNNTTIAGVLLAYTTAKIAGSIQATPGGIGPIEAAYIAALVATGMTAVEAAGAVIIYRLCSFIIMAIVGWVIYFIYFTPQGLKANESLDVEQDTINSDSNRQSAIERPDT” it is “failed”.

For the sequence “MRGGSLWQLGQSITRRLAQSDKKVVSRRYFASEADLKKTALYDFHVAHGGKMVPFAGWSMPIQYKDSIMDSTVNCRENGSLFDVAHMCGLSLKGKDCVPFLETLVVADVAGLAPGTGSLTVFTNEKGGAIDDSVITKVTDEHIYLVVNAGCRDKDLAHIEEHMKAFKSKGGDVSWHIHDERSLLALQGPLAAPVLQHLTKEDLSKLYFGNFQILDINGSTCFLTRTGYTGEDGFEISVPDEHAVDLAKAILEKSEGKVRLTGLGARDSLRLEAGLCLYGNDMEQHISPVEAGLTWAIGKRRRAEGGFLGADVILQQLKDGPTIRRVGFFSSGPPARSHSEVHDESGNKIGEITSGGFSPNLKKNIAMGYVKSGQHKTGTKVKILVRGKPYEGSITKMPFVATKYYKPT”, the protein production entry was “failed”. Take “MRGLSSLLLMIVLALLLYPLPHGVILIGIMTLSLLSHTLGIISLGILALYLIVFRITNIVGVAIMALGLLVVEIREMEKIRAPMEHFLYLIVAVGLSLLTYFGVYAISLAGVSLDVTLLAVLFLLLLYAFIRISVLSP”: the protein production entry was “failed”. The entry for “MRHFDASQPLRVAVLGTGFGSKVHIPALQHHSETTVQAVYHRQPDRAAAIAVQFGIPNAYSDLDQLLADPAIEAVTIASPPFLHYPMAWAALSAGKSVLLEKPTTLNVEEARALWKLASSQGLTVTLDFEYRFVPAWQYVAELLAEGVIGQPWLVKLDWLMSSRADASRPWNWYALRSQGGGALGALGSHSFDYLAWLFGPARRLQARLFTAIQERPDATTGELKPVDSDDTDLIQLELAEGVPCQISLSSVFRQGRGHWLEVYGDRGTLILGSSNQKDYVHGFQVWFASAGQALQELTVPQRLAFRQEFADGRLAPFLRVVDHWLADLRHGQMTAPSLKEGLYSQLLIDLCWQSQRSGEWQTVPELNRFLLEHHHHHH” is “failed”; for “MRHGEIARAARSAVPRRARAALPLACAALVAAGLAARAAGAAAPPPAPPAAAPARVLSAAVKGPITGGTVEYLEAALARARTGGFAALVVTLDTPGGQLDATREIVQAMLATEVPVIVWVGPAGARAGSAGVFLTLAADVAAMHPTSNIGAAHPVTGAGKDVAEEAGKDMAKKVENDTAAFARSVAAARGRNADWAEKAVRESVSVTAEEALRLKVADLTAADLPELLAKADGRKVGQGAAARPLKVAGAAIEPYEPTVRQRLLGFLADPNVMAILMLVGMLGIAVEFYHPGMIFPGAVGGFCLFLAFLAMRVIPVNVGAVILLLAGVGLLVAEAYVTAHGLAGLAGAACLVLGTLFFVNTSAPGDWFDPGALRLSPWVIWPTPAALALLLAFMAWNVARVRRAPLQLGAPALVGAPGEALSEIGPAAGEAFVHGEYWQARSAAPIPRGAAVRVVAVEGLTVTVVAAGPGNG” it is “failed”. For “MRHLITSLQNHNGQLKGEVQRYKRKYKDTSTDNLKLRQELADALATLEGNKLQAATGAAGEEIKQENSTGVKEENSNNVSASGQTNQTNSGNDTNVAIKEENHISAEDEADDEASGKDVKDGIKQEKLSSGDAAAAEKKDSPGPGNSTSSATNSVPVKNEKDSKDGVKGKDVKAVESETV”, the protein production entry is recorded as “failed”. As to “MRHNIKFKSKGTLKIRNTAQISLWKKCSDSMIADQTYLFINRVQDRRFDEESLRILELSLVAMNVKSFLEVRSRLRDFMRSESVVIFGELTGESMVAKLSVLEFFARAFALLGDMESCLAMRYEALNLRQLKSPSCLWLGVSHSEWTKFAVQSMENGFPSIAGKASENALLSLKKDSLIEPKSEDNSDILDAAEKVRRLRDSAASLTSSHSGIFIYIVSSLKFAVCNRLLTTF”, the protein production result is recorded as “failed”.

Regarding “MRHWLILFLLALPCLAGAVSFNEQVERLPLGQSIDVFEDVRGSADINDITSRAIDSSFRRHDKDVLNAGYSRSVFWLRLDLDYRPVASSDPRTWLLELAYPPLDKLDLYLPDGQGGYRLAQRTGDTLPFASRPIRQNNYLFELGLEPNKPQRVYLRLESQGSIQAPLTLWSPKAYLEEQPERIYVLGIIYGVLLVMLIYNLFIFLSVRDTSYLYYILYIASFGLYQVSVNGAGIEYFWPDSPWWANAATPFLIGSAALFGCQFARSFLHTRDHSVWVDRGLLALMAVGALVMLMALTMSYAVALRLATYLALAFTGLIFAAGILAWLRGMRVARYFIIAWTAFLLGGIVNTLMVLGYLPNMFLTMYASQIGSALEVGLLSLALADRINAMKEERARILQESSRKLEALNQELANSNRLKDEFLATVTHELRTPMSGVIGSLELMQTVPMDVELAEYQRTAAGSARDMMRMVNDILALIELQAGKLYPRREPFSLRGLFDSLRAQYAPRVEEKGLRFALQLDDSLPDTLEGDAGKLAQALGYLVDNAIKFTARGSVTLRVAAGRTHDGVALRVEVIDTGIGFDMAAGSDLYQRFVQADSSLTRGYGGLGIGLALCRKLVELLGGELTHESRPGQGSRFLLRLQLTQPAQGLAPPPRRAGGQAVRRPEECTVLVVEDNAINQLVTRGMLLKLGYRVRTADNGSEALELLARERPDGVLLDCQMPVMDGFATCRAIRALPGCAELPVLALTAHSHSGDRERCLAAGMSDYMAKPVKFEELQTLLHDWLLCQPIVTKSA”, the protein production entry is reported as “failed”. Take “MRIAGIEPESIVDGPGIRFTVFTQGCPLQCPGCHNPATWDPCGGQEVDVEEVIAAMNSSVLASGLTLSGGEASRQPRACARLARAAHEMGWDVWSWSGYTVEALMRQARRDAELADMLGQIDVLVDGPFQLVHRTLTLPWRGSSNQRVIDMPATLRGGRAVEWADRAGNLR”: the protein production result is “failed”. For “MRIDLSVPKVGAELELNKVLGKGSSGSVSLIKYKSRLDGQTLYAAVKTSNIIHADSLLKEFQILSEFKGCSRIVQCYGTKVQETINEEGDVEFTIPMEYASGGSLRHFMSRFKDMKLPDALIRRFTRMILEGLAVIHGHGYVHCDLKPENILVFPSFELKISDFGLSKREGDSKWWLPSHPFAGTPVYMSPESISNGETRRGLDLWSLGCVVLEMYTGKRPWWDKNYDLGDLKKGSMPLISKDIPCDAKLFVMTCFASETNKRKNAFTLLRHCFLRGDVNKIIEPLVKSKNSNDIALELENIEHRLSQLRCISGG”, the protein production result is “failed”. As for “MRIGHGFDVHAFGGEGPIIIGGVRIPYEKGLLAHSDGDVALHALTDALLGAAALGDIGKLFPDTDPAFKGADSRELLREAWRRIQAKGYTLGNVDVTIIAQAPKMLPHIPQMRVFIAEDLGCHMDDVNVKATTTEKLGFTGRGEGIACEAVALLIKATK”, the protein production result is recorded as “not failed”. The entry for “MRIGIISVGPGNIMNLYRGVKRASENFEDVSIELVESPRNDLYDLLFIPGVGHFGEGMRRLRENDLIDFVRKHVEDERYVVGVCLGMQLLFEESEEAPGVKGLSLIEGNVVKLRSRRLPHMGWNEVIFKDTFPNGYYYFVHTYRAVCEEEHVLGTTEYDGEIFPSAVRKGRILGFQFHPEKSSKIGRKLLEKVIECSLSRR” is “not failed”.

For “MRIGQYQLRNRLIAAPMAGITDRPFRTLCYEMGAGLTVSEMMSSNPQVWESDKSRLRMVHIDEPGIRTVQIAGSDPKEMADAARINVESGAQIIDINMGCPAKKVNRKLAGSALLQYPDVVKSILTEVVNAVDVPVTLKIRTGWAPEHRNCEEIAQLAEDCGIQALTIHGRTRACLFNGEAEYDSIRAVKQKVSIPVIANGDITDPLKARAVLDYTGADALMIGRAAQGRPWIFREIQHYLDTGELLPPLPLAEVKRLLCAHVRELHDFYGPAKGYRIARKHVSWYLQEHAPNDQFRRTFNAIEDASEQLEALEAYFENFA”, the protein production result is reported as “failed”. In the case of “MRIGVYVCHCGLNIAGVIDVSALEEMAGELEDVVLAREVQFLCSDSGQEGIIKDIKDNKIDRVVIAACSPRLHEKTFRHVMEKADLNPYLMEMVNIREQCSWVHADDPQMATQKAFDLIRMGVAKARFLRELSATSSKASRNVLIIGGGVAGIEAALNLAEAGFPVTMVERESTIGGKMALMNEVFPTNDCSICVLAPKMTEVQNHPNITLYTYSEVTDISGSVGKFHVRVTRKPRFVLEDKCKGCVDLCSEVCPVEIENPMNYGIGKSRAIYMPIPQSVPQVVLIDPDHCVGCGLCQLACPAEAVDYEQKPEEIEFEAGAVIVSTGYQLFDASRKKEYGFGKYPDVITNMQLERMLNSAGPTGGRVLVPSTGQPPESVAFIQCVGSRDKTVGNEHCSRVCCMAALKNSQMVKERYPGTDITIHYIDIRAAGEMYEEYYARTQGMGVDFIRGKVAEVYAGEDGRPVVRYENTLESRVEEEAHDLVVLSTGYEPSKAAEGIGRMLNLARRPDRFFASAHPKMRPVDAPVSGVFLAGCASGPKEIQVSIAQGSACASKVMQLLGTGELEADPMGAHVDPDKCIGCRTCVEVCKFGKISIVDKKAVVDEVSCYGCGDCSAACPVGAIQMRNFENEQILAQVRAATAHKSQCPFVVAFLCNWCSYACADLTGMSRIHYPTNIRVIRTMCSARINPEFVLEALKGGADGVLVAGCRMDECHYIHGNFDAKKRMDVLKEIIKEIGLDPKRLRTLWISAAEGERFSNTITEFVKELEEIGPIGSELKREYTATGLEEVAK”, the protein production result is on record as “failed”. With “MRIIKNIILISLLFAIILVSLFFGEKWVRTNVKNQAIVYNSQLNPTVMISGSSANNHRFDNLVAILNRQSTTHSLLRVQVNEDNSISYSGRIRPNDSQPYIVIGFQNNSDGYANIKRQAKWLEIAMKFLQKRYHFNHFNAFGHSNGGLDWTIYLEKYFNQKSSTIGTLMTVGSPFNFSEKSESNRTQMLTDLIKNRSKLPRDMTVYSIAGTETYNDDGIVPIESVLSGKYVFQKNVHSYTQITVSGNDSEHSDLPTNPQIVQLIQRDILDGRGQKQSSNPVFNNH”, the protein production entry was “failed”.
